B1: Nb 3G11 (VHH)
VHH: QVQLQESGGGLVQAGGSLRLSCAVSGRLNSRYSMGWFRQAPGKEREFVAVVKWTTGGTMYADSVKGRFTISRDNRKNTVYLQMNTLKPEDTALYYCASRPDYSNSYYYTTVSDYSDWGQGTQVTVSS
notes: also called nanobody 3G11; not shown: His-tag, C-terminal, kept
B2: Nb 3H7 (VHH)
VHH: QVQLQESGGGLVQAGGSLRLSCAGPVRAFNTYAMGWFRQAPGKEREFVAAITRSGDVTYYSNSVKGRFTISRENAKNTVYLHMNSLKPEDTAVYSCAADAQLTPLNPRAQEYAYWGQGTQVTVSS
notes: also called nanobody 3H7; not shown: His-tag, C-terminal, kept
B3: Nb 3B9 (VHH)
VHH: QVQLQESGGGLVQAGGSLRLSCAASGRTFSSYAMGWFRQAPGMEREFVAAIPWIGGNTYYADSVKGRFTISRDNAKTLYLLMNSLKPEDTALYYCAARAHSYVLSTSPSHYDYWGQGTQVTVSS
notes: Eluted in SEC as a dimer and a monomer population; the two were kept separate in the later assays and counted as two of the 14 Nbs; not shown: His-tag, C-terminal, kept
B4: Nb 3G9 (VHH)
VHH: QVQLQESGGGLVQAGDSLRLSCAASRRTSNTYAMGWFRQAPGKEREFVAAIPWIGGNTYYADSVKGRFTISRDNAKTLYLLMNSLKPEDTALYYCAARAHSYVLSTSPSHYDYWGQGTQVTVSS
notes: as for B3

Target: Fascin-1 1-493 (full-length human Fascin-1 WT, untagged) (human, UniProt Q16658)
Assay: pull-down; in vitro co-precipitation of recombinant proteins: His-tagged Nbs immobilised on Nickel Sepharose as bait for untagged Fascin-1; SDS-PAGE
Conditions: both partners purified

| Binder | binding result |
| --- | --- |
| B1 | binds |
| B2 | binds |
| B3 | binds |
| B4 | binds |
